# Laboratory results reported in patent publication US20130209396A1 (ELEVEN BIOTHERAPEUTICS, published 2013).
# Positions count from the first letter of the chain named.
# T1: soluble recombinant human IL-1RI (corresponding to the extracellular domain of IL-1RI) (human, UniProt P14778 18-336)
# T1 construct: extracellular domain; also called interleukin-1 receptor I; immobilized soluble IL-1RI
# T1 sequence (looked up): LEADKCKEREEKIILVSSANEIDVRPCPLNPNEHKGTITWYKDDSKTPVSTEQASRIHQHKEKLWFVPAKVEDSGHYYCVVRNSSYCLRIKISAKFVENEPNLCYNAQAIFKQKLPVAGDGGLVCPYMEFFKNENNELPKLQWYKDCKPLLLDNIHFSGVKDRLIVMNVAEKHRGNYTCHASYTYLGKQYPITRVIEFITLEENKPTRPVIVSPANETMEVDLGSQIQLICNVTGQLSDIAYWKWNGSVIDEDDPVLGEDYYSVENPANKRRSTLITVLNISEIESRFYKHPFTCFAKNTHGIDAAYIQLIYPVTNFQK
# T2: IL-1RI on HEK-Blue IL-1β responsive cells (UniProt P14778 18-569)
# T2 sequence (looked up): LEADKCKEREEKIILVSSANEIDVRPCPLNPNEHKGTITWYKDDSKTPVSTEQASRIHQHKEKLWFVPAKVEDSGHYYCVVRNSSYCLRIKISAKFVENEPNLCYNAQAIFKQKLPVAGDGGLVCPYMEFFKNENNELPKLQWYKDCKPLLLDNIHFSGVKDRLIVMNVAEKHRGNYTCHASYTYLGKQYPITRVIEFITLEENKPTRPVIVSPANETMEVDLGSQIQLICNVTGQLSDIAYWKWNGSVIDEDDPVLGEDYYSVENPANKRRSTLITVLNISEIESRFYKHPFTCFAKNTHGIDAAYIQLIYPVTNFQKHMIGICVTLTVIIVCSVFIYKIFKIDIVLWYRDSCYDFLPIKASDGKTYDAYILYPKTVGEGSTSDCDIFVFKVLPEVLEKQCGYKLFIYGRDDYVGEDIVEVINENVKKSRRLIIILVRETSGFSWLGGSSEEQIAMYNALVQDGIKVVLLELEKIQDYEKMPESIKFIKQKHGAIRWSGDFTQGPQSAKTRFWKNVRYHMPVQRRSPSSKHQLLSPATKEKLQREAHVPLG
# B1: P02 (designed binder)
# chain: APVRSLAFRIWDVNQKTFYLRNNQLVAGYLQGPNVNLEEKIDVSFVQGEESNDKIPVALGIHGGKMCLSCVKSGDETRLQLEAVDPKNYPKKKMEKRFVFNKIEINNKLSFESAACPGWFLCTAMEADQPVSLTNMPDEGVMVTKFYMQFVSS
# notes: Chimeric IL-1β/IL-1Ra cytokine domain expressed in E. coli; also called P02 domain
# B2: P04 (designed binder)
# chain: APVRSLAFRIWDVNQKTFYLRNNQLVAGYLQGPNVNLEEKFSMSFVQGEESNDKIPVALGLKEKNLYLSCVLKDDKPTLQLESVDPKNYPKKKMEKRFVFNKIEINNKLEFESAACPGWFLCTAMEADQPVSLTNMPDEGVMVTKFTMQFVSS
# notes: Chimeric IL-1β/IL-1Ra cytokine domain expressed in E. coli; Both hexa-histidine tagged and untagged forms were made; also called P04 domain
# B3: P05 (designed binder)
# chain: B2 chain with A7N, F8C, A115Q, C116F, G118N, T147Y
# B4: P03 (designed binder)
# chain: B2 chain with N101I, K102R, I103S, E104D, I105S, N106G, N107P, K108T, L109T, E110S
# notes: Chimeric IL-1β/IL-1Ra cytokine domain expressed in E. coli; Both hexa-histidine tagged and untagged forms were made; also called P03 domain
# Legend:
# [1] = target: T1, soluble recombinant human IL-1RI …; assay: SPR (Reichert SR7000DC), soluble human IL-1RI; end of range tied to P02 (lowest Kd) by Table 7
# Procedure: (§1) The binding properties of proteins for soluble recombinant human IL-1RI (corresponding to the extracellular domain of IL-1RI) were evaluated using surface plasmon resonance with a Reichert SR7000DC Dual Channel SPR system. Binding was evaluated in phosphate buffered saline with 0.005% Tween 20. […] Thus, the P01 protein bound to IL-1RI with a greater affinity than did IL-1β under similar conditions.
# (§2) See for example FIGS. 9C and 9D and Table 7 below.
# [2] = target: T1, soluble recombinant human IL-1RI …; assay: SPR (Reichert SR7000DC), soluble human IL-1RI; end of range tied to P04 by Table 7
# Procedure: as §1, §2
# [3] = target: T2, IL-1RI on HEK-Blue IL-1β responsive …; assay: cell-based or functional assay
# [4] = target: T1, soluble recombinant human IL-1RI …; assay: SPR (Reichert SR7000DC), soluble human IL-1RI; end of range tied to P03 (highest Kd) by Table 7
# Procedure: as §1, §2
binder,measurement,setting,value
B1,koff,[1],2e-05 s⁻¹
B2,Kd,[2],1.7 nM
same,kon,[2],30000 M⁻¹ s⁻¹
B3,"IC50 of antagonism of IL-1β activity, SEAP reporter in HEK-Blue IL-1β cells",[3],< 5 ng/mL
B4,koff,[4],0.001 s⁻¹
